From IntAct's records for PubMed 34927784

How the values were obtained:
erep1_human ENTREP1 = erep1_human ENTREP1 (UniProt Q15884)
cxcr4_human CXCR4 = cxcr4_human CXCR4 (UniProt P61073)
Chain of cxcr4_human CXCR4 (P61073 whole entry): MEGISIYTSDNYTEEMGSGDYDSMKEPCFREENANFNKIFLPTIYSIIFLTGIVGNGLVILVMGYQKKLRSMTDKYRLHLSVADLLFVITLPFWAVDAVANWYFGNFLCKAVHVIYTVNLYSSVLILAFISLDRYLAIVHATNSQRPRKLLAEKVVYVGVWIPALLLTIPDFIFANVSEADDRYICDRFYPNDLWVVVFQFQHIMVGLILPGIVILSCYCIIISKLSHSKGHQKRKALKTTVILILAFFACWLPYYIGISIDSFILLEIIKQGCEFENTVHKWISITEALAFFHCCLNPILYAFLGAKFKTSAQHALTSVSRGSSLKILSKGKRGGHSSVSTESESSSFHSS

Chain of E3 ubiquitin-protein ligase Itchy homolog (Homo sapiens), Q96J02-2 C830A (Q96J02 other isoform, or with tags, fused parts or gaps C830A): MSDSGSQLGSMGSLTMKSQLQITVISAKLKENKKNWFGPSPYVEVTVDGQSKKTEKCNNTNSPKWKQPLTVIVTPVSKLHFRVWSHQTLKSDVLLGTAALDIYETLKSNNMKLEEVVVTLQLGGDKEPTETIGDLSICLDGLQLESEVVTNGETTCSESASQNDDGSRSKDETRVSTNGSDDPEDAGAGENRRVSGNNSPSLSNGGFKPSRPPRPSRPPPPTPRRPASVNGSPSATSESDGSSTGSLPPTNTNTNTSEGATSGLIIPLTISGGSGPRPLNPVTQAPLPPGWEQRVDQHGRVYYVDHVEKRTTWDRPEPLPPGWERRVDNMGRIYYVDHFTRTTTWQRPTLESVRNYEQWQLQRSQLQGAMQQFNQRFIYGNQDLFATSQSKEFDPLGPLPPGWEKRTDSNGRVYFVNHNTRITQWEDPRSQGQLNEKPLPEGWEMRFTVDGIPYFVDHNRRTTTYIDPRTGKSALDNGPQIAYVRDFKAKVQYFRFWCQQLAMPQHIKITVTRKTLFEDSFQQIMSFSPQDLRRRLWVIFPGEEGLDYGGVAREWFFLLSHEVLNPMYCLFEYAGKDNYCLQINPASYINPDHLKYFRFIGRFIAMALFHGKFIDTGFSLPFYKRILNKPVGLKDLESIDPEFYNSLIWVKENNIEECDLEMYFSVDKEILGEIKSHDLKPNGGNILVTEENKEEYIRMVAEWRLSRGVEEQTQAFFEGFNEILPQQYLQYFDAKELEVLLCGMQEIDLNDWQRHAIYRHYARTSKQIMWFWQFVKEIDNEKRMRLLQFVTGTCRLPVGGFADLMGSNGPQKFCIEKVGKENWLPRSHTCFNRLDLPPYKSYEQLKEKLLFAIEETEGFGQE
Chain of erep1_human ENTREP1 (Q15884 whole entry): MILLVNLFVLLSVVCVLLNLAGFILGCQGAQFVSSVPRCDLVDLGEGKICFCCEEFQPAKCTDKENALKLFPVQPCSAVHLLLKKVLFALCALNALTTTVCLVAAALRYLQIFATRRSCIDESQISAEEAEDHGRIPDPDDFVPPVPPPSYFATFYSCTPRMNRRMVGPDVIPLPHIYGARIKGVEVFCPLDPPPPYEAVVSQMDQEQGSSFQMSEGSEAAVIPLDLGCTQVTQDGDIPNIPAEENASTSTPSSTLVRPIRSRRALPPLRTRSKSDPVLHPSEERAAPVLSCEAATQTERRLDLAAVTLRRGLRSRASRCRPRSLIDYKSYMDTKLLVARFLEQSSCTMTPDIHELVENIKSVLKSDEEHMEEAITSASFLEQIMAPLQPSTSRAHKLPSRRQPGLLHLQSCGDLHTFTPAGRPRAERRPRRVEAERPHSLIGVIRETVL

effect of a mutation on the interaction (erep1_human ENTREP1): with no effect
effect of a mutation on the interaction (cxcr4_human CXCR4): with no effect
Substance: E3 ubiquitin-protein ligase Itchy homolog (Homo sapiens), Q96J02-2 C830A
